The results in this text go back to PMC2491553, “P68 RNA Helicase (DDX5) Alters Activity of Cis- and Trans-Acting Factors of the Alternative Splicing of H-Ras”.

Data set [1] deals with GST-FUS (FUS/TLS) (UniProt P35637 1-526). In words: EMSA; GST-FUS; Crosslinking: 1x Roeder D buffer, 1 mM ATP, 1.7 mM MgCl2, 0.1 uM heparin, 30 min 30 C; EMSA: 1 pmol 32P-RNA, native 6-8% PAGE, buffer details not in material. The settings on record: protein: recombinant; tags: GST; label: 32P.
For data set [2], the target named is T1, GST-hnRNP H (GST-H) (UniProt P31943 1-449).
T1 sequence: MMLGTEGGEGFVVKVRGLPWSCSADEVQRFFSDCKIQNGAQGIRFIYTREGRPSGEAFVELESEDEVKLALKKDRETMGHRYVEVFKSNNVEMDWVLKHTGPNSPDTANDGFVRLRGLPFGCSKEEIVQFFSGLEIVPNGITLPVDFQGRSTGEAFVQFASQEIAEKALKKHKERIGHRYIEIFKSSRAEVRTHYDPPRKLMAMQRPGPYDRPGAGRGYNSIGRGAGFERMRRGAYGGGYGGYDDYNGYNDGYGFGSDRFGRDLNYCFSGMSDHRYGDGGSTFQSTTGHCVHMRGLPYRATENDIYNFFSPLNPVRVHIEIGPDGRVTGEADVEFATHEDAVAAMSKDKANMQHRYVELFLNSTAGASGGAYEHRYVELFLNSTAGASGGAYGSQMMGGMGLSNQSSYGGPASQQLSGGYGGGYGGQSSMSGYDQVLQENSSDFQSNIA
As to the kind of experiment: EMSA; 100-400 ng GST-H; Crosslinking: 1x Roeder D buffer, 1 mM ATP, 1.7 mM MgCl2, 0.1 uM heparin, 30 min 30 C; EMSA: 1 pmol 32P-RNA, native 6-8% PAGE, buffer details not in material. The settings on record: protein: recombinant; tags: GST; label: 32P.

Chain of GST-FUS (FUS/TLS) (P35637 whole entry): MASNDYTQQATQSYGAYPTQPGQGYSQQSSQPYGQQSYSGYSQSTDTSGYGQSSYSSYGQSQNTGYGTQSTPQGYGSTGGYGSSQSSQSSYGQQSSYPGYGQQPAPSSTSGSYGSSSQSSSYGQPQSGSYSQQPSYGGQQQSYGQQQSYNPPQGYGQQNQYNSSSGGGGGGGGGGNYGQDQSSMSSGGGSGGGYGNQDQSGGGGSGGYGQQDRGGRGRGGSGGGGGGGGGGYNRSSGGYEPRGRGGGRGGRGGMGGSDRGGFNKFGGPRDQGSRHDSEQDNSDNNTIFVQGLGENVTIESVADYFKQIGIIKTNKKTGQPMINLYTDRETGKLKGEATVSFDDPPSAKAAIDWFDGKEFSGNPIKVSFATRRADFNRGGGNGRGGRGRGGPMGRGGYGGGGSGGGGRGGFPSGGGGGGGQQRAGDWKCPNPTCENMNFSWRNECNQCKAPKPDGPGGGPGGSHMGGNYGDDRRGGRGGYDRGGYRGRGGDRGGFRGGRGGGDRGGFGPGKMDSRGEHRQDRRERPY

As to GGGACGGCAGGGCGUGAGGGAGGCGAGGGCCGGGGUCUGGGCUCACGCCC (ssRNA) [rasISS1], the binding result in data set [1] is “no binding”; in data set [2], “binds”.

GGGACGCCGGGGUCUGGGCUCACGCCC (ssRNA) [ΔrasISS1]: the binding result in data set [2] is listed as “no binding”.
